B1: tail completion protein p143 of bacteriophage T5 (natural protein, UniProt Q6QGE0 1-255, looked up)
chain: MSLSDLARQIIKEQLDTASRSENNKNTVVYSVETGLKDPTRDGTVAQVSFKFSKPVSQDLLNIRTASILKAVSSSLDLSGDLGALENLIQATAGKKSSVGKKRSTGRVQVNFGDPSDVEDGYSGAVTGASGRFVSNSNMKIILEIVAKEYLIKDMKKAGAPLKFRTGRFANSLKIKDVMLRDSETSKGSPELNVTYNYMTRPYSVFNPAVSTYRRLSLRPYPGARNPQKLIGEAIAKAARDLIHSRYKIKVNQGT
notes: tail completion protein p143 (TCP) of bacteriophage T5; 27.8 kDa, 255 residues; Native protein of the purified tail; the density was assigned to it by the fit of an AlphaFold2 model and because it was the only tail protein not yet localised; also called TCP_(p143); Neck1; source: E. coli strain F infected with the mutant phage T5D20am30d; part of purified T5 tails
B2: tail tube protein pb6 of bacteriophage T5 (natural protein, UniProt Q6QGE2 1-464, looked up)
chain: MSLQLLRNTRIFVSTVKTGHNKTNTQEILVQDDISWGQDSNSTDITVNEAGPRPTRGSKRFNDSLNAAEWSFSTYILPYKDKNTSKQIVPDYMLWHALSSGRAINLEGTTGAHNNATNFMVNFKDNSYHELAMLHIYILTDKTWSYIDSCQINQAEVNVDIEDIGRVTWSGNGNQLIPLDEQPFDPDQIGIDDETYMTIQGSYIKNKLTILKIKDMDTNKSYDIPITGGTFTINNNITYLTPNVMSRVTIPIGSFTGAFELTGSLTAYLNDKSLGSMELYKDLIKTLKVVNRFEIALVLGGEYDDERPAAILVAKQAHVNIPTIETDDVLGTSVEFKAIPSDLDAGDEGYLGFSSKYTRTTINNLIVNGDGATDAVTAITVKSAGNVTTLNRSATLQMSVEVTPSSARNKEVTWAITAGDAATINATGLLRADASKTGAVTVEATAKDGSGVKGTKVITVTAGG
notes: tail tube protein pb6 (TTP) of bacteriophage T5; structures compared over the 464 residues; Native phage-encoded protein as it stands in the purified tail; trimeric ring (last ring of the tube, under the p142 ring); also called TTPpb6; source: E. coli strain F infected with the mutant phage T5D20am30d; part of purified T5 tails (PEG precipitation, glycerol step gradient, ion exchange)
B3: tail terminator protein p142 of bacteriophage T5 (natural protein, UniProt Q6QGE1 1-161, looked up)
chain: MDHRTSIAQAMVDRISKQMDGSQPDEYFNNLYGNVSRQTYKFEEIREFPYVAVHIGTETGQYLPSGQQWMFLELPILVYDKEKTDIQEQLEKLVADIKTVIDTGGNLEYTVSKPNGSTFPCEATDMIITSVSTDEGLLAPYGLAEINVTVRYQPPRRSLRR
notes: tail terminator protein p142 (TrP) of bacteriophage T5; a 161-residues protein; model compared over 156 residues; Native phage-encoded protein as it stands in the purified tail; hexameric ring that caps the tail tube; also called TrP_(p142); Trp_(p142); source: E. coli strain F infected with the mutant phage T5D20am30d; part of purified T5 tails (PEG precipitation, glycerol step gradient, ion …)
B4: Baseplate Hub Protein pb3 of bacteriophage T5 (natural protein, UniProt Q6QGE9 1-949, looked up)
chain: MKKILDSAKNYLNTHDKLKTACLIALELPSSSGSAATYIYLTDYFRDVTYNGILYRSGKVKSISSHKQNRQLSIGSLSFTITGTAEDEVLKLVQNGVSFLDRGITIHQAIINEEGNILPVDPDTDGPLLFFRGRITGGGIKDNVNTSGIGTSVITWNCSNQFYDFDRVNGRYTDDASHRGLEVVNGTLQPSNGAKRPEYQEDYGFFHSNKSTTILAKYQVKEERYKLQSKKKLFGLSRSYSLKKYYETVTKEVDLDFNLAAKFIPVVYGVQKIPGIPIFADTELNNPNIVYVVYAFAEGEIDGFLDFYIGDSPMICFDETDSDTRTCFGRKKIVGDTMHRLAAGTSTSQPSVHGQEYKYNDGNGDIRIWTFHGKPDQTAAQVLVDIAKKKGFYLQNQNGNGPEYWDSRYKLLDTAYAIVRFTINENRTEIPEISAEVQGKKVKVYNSDGTIKADKTSLNGIWQLMDYLTSDRYGADITLDQFPLQKVISEAKILDIIDESYQTSWQPYWRYVGWNDPLSENRQIVQLNTILDTSESVFKNVQGILESFGGAINNLSGEYRITVEKYSTNPLRINFLDTYGDLDLSDTTGRNKFNSVQASLVDPALSWKTNSITFYNSKFKEQDKGLDKKLQLSFANITNYYTARSYADRELKKSRYSRTLSFSVPYKFIGIEPNDPIAFTYERYGWKDKFFLVDEVENTRDGKINLVLQEYGEDVFINSEQVDNSGNDIPDISNNVLPPRDFKYTPTPGGVVGAIGKNGELSWLPSLTNNVVYYSIAHSGHVNPYIVQQLENNPNERMIQEIIGEPAGLAIFELRAVDINGRRSSPVTLSVDLNSAKNLSVVSNFRVVNTASGDVTEFVGPDVKLAWDKIPEEEIIPEIYYTLEIYDSQDRMLRSVRIEDVYTYDYLLTYNKADFALLNSGALGINRKLRFRIRAEGENGEQSVGWATI
notes: Baseplate Hub Protein pb3 (BHP) of bacteriophage T5; Native protein of the purified tail tip; trimer; also called BHPpb3; source: E. coli strain F infected with the mutant phage T5D20am30d; part of purified T5 tails
B5: distal tail protein pb9 of bacteriophage T5 (natural protein, UniProt Q6QGE8 1-204, looked up)
chain: MRLPDPYTNPEYPGLGFESVNLVDNDPMIRDELPNGKVKEVKISAQYWGINISYPELFPDEYAFLDSRLLEYKRTGDYLDVLLPQYEAFRVRGDTKSVTIPAGQKGSQIILNTNGTLTGQPKAGDLFKLSTHPKVYKITNFSSSGNVWNISLYPDLFITTTGSEKPVFNGILFRTKLMNGDSFGSTLNNNGTYSGISLSLRESL
notes: distal tail protein pb9 (DTP) of bacteriophage T5; Native protein of the purified tail tip; hexamer; also called DTPpb9; source: E. coli strain F infected with the mutant phage T5D20am30d; part of purified T5 tails

What was measured:
[1] = target: B4; assay: cryo-EM structure; tail tip of native purified T5 tails; particles recentred on the lower part of BHPpb3, symmetry relaxation, no symmetry imposed; 6–10 Å in the area of the additional density; AlphaFold2 model of TCP_(p143) flexibly fitted; details: partners not purified
[2] = target: the molecule itself; assay: cryo-EM structure; proximal extremity of native T5 tails (assembled in infected E. coli, purified as whole tails); single particle analysis, C3 symmetry imposed, 3.88 Å
[3] = target: the molecule itself; assay: cryo-EM structure; tail tip of native purified T5 tails; particles recentred on the lower part of BHPpb3, symmetry relaxation, no symmetry imposed; 6–10 Å in the area of the additional density; AlphaFold2 model of TCP_(p143) flexibly fitted

Binder	stoichiometry N [2]	stoichiometry N [3]	also measured
B1			stoichiometry N [1]: 1 copy per phage
B2	3		
B3	6		
B4		3	
B5		6	
